Patent US20230134571A1 (INTERNATIONAL AIDS VACCINE INITIATIVE, published 2023)
Numbering of substitutions follows the chain as printed.

B1: ePGDM13 (antibody, V domains shown)
VH: QAQLVQSGPEVRKPGTSVKVSCKNPGNTLTTYDLHWVRQVPGQGLQWMGWISHEGDKKVIVERFKAKVTIDWDRSTNTAYLQLSGLTSEDTAVYYCAKGSKHRLRDYALYDEDGALNWAVDVDYLANLEFWGQGTAVTVSS
VL: DIVLTQSPLSLSVTPGESASISCKSSHSLQHGDRNNYLAWYVQKPGRSPQLLLDLASERASGVPDRFSGSGSEKDFTLKISRVETEDVGTYYCMQGRESPWTFGQGTKVDIK
B2: ePGDM5 (antibody, V domains shown)
VH: B1 VH
VL: B1 VL with I2F, S26D, L53I, E73R, S81D, T85A
B3: ePGDM9 (antibody, V domains shown)
VH: B1 VH
VL: B1 VL with H27Q, Q30I, L53I, E73R

molecular target: HIV Env of isolate 0815.v3.c3 (clade ACD) (HIV); test: cell-based or functional assay

B1 and B2 cannot be ordered by “IC50 (µg/ml) with constrains” value: greater than 100 µg/mL for the first, greater than 100 µg/mL for the second.

For B3, the “IC50 (µg/ml) with constrains” value was greater than 100 µg/mL.

B1 and B2 cannot be ordered by “IC80 (µg/ml) with constrains” value: greater than 100 µg/mL for the first, greater than 100 µg/mL for the second.

With B3 the “IC80 (µg/ml) with constrains” value was greater than 100 µg/mL.

molecular target: HIV Env of isolate R3265.c06 (clade AE) (HIV); test: cell-based or functional assay

B1 and B2 are within 1.5-fold of each other in “IC50 (µg/ml) with constrains” value: 0.026 µg/mL for the first, 0.028 µg/mL for the second.

In the case of B3, the “IC50 (µg/ml) with constrains” value is reported as 0.019 µg/mL.

B1 and B2 are within 1.5-fold of each other in “IC80 (µg/ml) with constrains” value: 0.104 µg/mL for the first, 0.113 µg/mL for the second.

With B3 the “IC80 (µg/ml) with constrains” value was 0.078 µg/mL.

molecular target: HIV Env of isolate T211-9 (clade AG) (HIV); test: cell-based or functional assay

B1 and B2 are within 1.5-fold of each other in “IC50 (µg/ml) with constrains” value: 0.028 µg/mL for the first, 0.025 µg/mL for the second.

With B3 the “IC50 (µg/ml) with constrains” value was 0.02 µg/mL.

B1 and B2 are within 1.5-fold of each other in “IC80 (µg/ml) with constrains” value: 0.113 µg/mL for the first, 0.099 µg/mL for the second.

With B3 the “IC80 (µg/ml) with constrains” value was 0.081 µg/mL.

molecular target: HIV Env of isolate 0260.v5.c36 (clade A) (HIV); test: cell-based or functional assay

B1 and B2 are within 1.5-fold of each other in “IC50 (µg/ml) with constrains” value: 0.025 µg/mL for the first, 0.021 µg/mL for the second.

B3 was tested, and the “IC50 (µg/ml) with constrains” value was 0.018 µg/mL.

B1 and B2 are within 1.5-fold of each other in “IC80 (µg/ml) with constrains” value: 0.098 µg/mL for the first, 0.084 µg/mL for the second.

For B3, the “IC80 (µg/ml) with constrains” value was 0.073 µg/mL.

molecular target: HIV Env of isolate 249MB10 (clade C) (HIV); test: cell-based or functional assay

Compared with B1, B2 is 2.9-fold lower in “IC50 (µg/ml) with constrains” value: 0.032 µg/mL for the first, 0.011 µg/mL for the second.

In the case of B3, the “IC50 (µg/ml) with constrains” value is reported as 0.007 µg/mL.

molecular target: HIV Env of isolate C3347.c11 (clade AE) (HIV); test: cell-based or functional assay

Compared with B1, B2 is 1.8-fold lower in “IC50 (µg/ml) with constrains” value: 0.009 µg/mL for the first, 0.005 µg/mL for the second.

In the case of B3, the “IC50 (µg/ml) with constrains” value is reported as 0.003 µg/mL.

Going from B1 to B2, the “IC80 (µg/ml) with constrains” value falls from 0.037 µg/mL to 0.021 µg/mL (1.8-fold).

For B3, the “IC80 (µg/ml) with constrains” value was 0.011 µg/mL.

molecular target: HIV Env of isolate BJOX015000.11.5 (clade AE) (HIV); test: cell-based or functional assay

Compared with B1, B2 is 1.6-fold lower in “IC50 (µg/ml) with constrains” value: 1.72 µg/mL for the first, 1.1 µg/mL for the second.

With B3 the “IC50 (µg/ml) with constrains” value was 0.958 µg/mL.

First: B1
Second: B2
The “IC80 (µg/ml) with constrains” value of the first is 1.6-fold higher: 6.86 µg/mL for the first, 4.39 µg/mL for the second.

For B3, the “IC80 (µg/ml) with constrains” value was 3.83 µg/mL.

molecular target: HIV Env of isolate ZM53M.PB12 (clade C) (HIV); test: cell-based or functional assay

B1 and B2 are the same in “IC50 (µg/ml) with constrains” value: 0.005 µg/mL for the first, 0.005 µg/mL for the second.

B3 was tested, and the “IC50 (µg/ml) with constrains” value was 0.006 µg/mL.

molecular target: HIV Env of isolate SC05_8C11_2344 (clade B) (HIV); test: cell-based or functional assay

First: B1
Second: B2
The “IC50 (µg/ml) with constrains” value of the first is 1.5-fold lower: 2.36 µg/mL for the first, 3.62 µg/mL for the second.

In the case of B3, the “IC50 (µg/ml) with constrains” value is reported as 1.06 µg/mL.

molecular target: HIV Env of isolate AC10.0.29 (clade B) (HIV); test: cell-based or functional assay

B1 and B2 are within 1.5-fold of each other in “IC50 (µg/ml) with constrains” value: 0.194 µg/mL for the first, 0.275 µg/mL for the second.

For B3, the “IC50 (µg/ml) with constrains” value was 0.074 µg/mL.

molecular target: HIV Env of isolate CAAN5342.A2 (clade B) (HIV); test: cell-based or functional assay

First: B1
Second: B2
The “IC50 (µg/ml) with constrains” value of the first is 1.8-fold lower: 40.2 µg/mL for the first, 73 µg/mL for the second.

In the case of B3, the “IC50 (µg/ml) with constrains” value is reported as 17.5 µg/mL.

molecular target: HIV Env of isolate WEAU_d15_410_5017 (clade B) (HIV); test: cell-based or functional assay

Going from B1 to B2, the “IC50 (µg/ml) with constrains” value falls from 0.003 µg/mL to 0.001 µg/mL (3-fold).

In the case of B3, the “IC50 (µg/ml) with constrains” value is reported as 0.002 µg/mL.

molecular target: HIV Env of isolate 620345.c01 (clade AE) (HIV); test: cell-based or functional assay

B1 and B2 cannot be ordered by “IC50 (µg/ml) with constrains” value: greater than 100 µg/mL for the first, greater than 100 µg/mL for the second.

In the case of B3, the “IC50 (µg/ml) with constrains” value is reported as greater than 100 µg/mL.

B1 and B2 cannot be ordered by “IC80 (µg/ml) with constrains” value: greater than 100 µg/mL for the first, greater than 100 µg/mL for the second.

B3 was tested, and the “IC80 (µg/ml) with constrains” value was greater than 100 µg/mL.

molecular target: HIV Env of isolate CNE17 (clade BC) (HIV); test: cell-based or functional assay

B1 and B2 are within 1.5-fold of each other in “IC50 (µg/ml) with constrains” value: 0.008 µg/mL for the first, 0.007 µg/mL for the second.

For B3, the “IC50 (µg/ml) with constrains” value was 0.003 µg/mL.

molecular target: HIV Env of isolate X2088_C9 (clade G) (HIV); test: cell-based or functional assay

Compared with B1, B2 is 2.2-fold lower in “IC50 (µg/ml) with constrains” value: 64.1 µg/mL for the first, 28.6 µg/mL for the second.

B3 was tested, and the “IC50 (µg/ml) with constrains” value was greater than 100 µg/mL.

molecular target: HIV Env of isolate CNE52 (clade BC) (HIV); test: cell-based or functional assay

Going from B1 to B2, the “IC50 (µg/ml) with constrains” value rises from 2.83 µg/mL to 6.14 µg/mL (2.2-fold).

B3 was tested, and the “IC50 (µg/ml) with constrains” value was 1.85 µg/mL.

molecular target: HIV Env of isolate Q461.e2 (clade A) (HIV); test: cell-based or functional assay

B1 and B2 are within 1.5-fold of each other in “IC50 (µg/ml) with constrains” value: 0.132 µg/mL for the first, 0.104 µg/mL for the second.

B3 was tested, and the “IC50 (µg/ml) with constrains” value was 0.06 µg/mL.

B1 and B2 are within 1.5-fold of each other in “IC80 (µg/ml) with constrains” value: 0.528 µg/mL for the first, 0.415 µg/mL for the second.

B3 was tested, and the “IC80 (µg/ml) with constrains” value was 0.24 µg/mL.

molecular target: HIV Env of isolate 62357_14_D3_4589 (clade B) (HIV); test: cell-based or functional assay

Compared with B1, B2 is 1.7-fold lower in “IC50 (µg/ml) with constrains” value: 17.4 µg/mL for the first, 9.98 µg/mL for the second.

In the case of B3, the “IC50 (µg/ml) with constrains” value is reported as 9.51 µg/mL.

molecular target: HIV Env of isolate ZM249M.PL1 (clade C) (HIV); test: cell-based or functional assay

Compared with B1, B2 is 2.5-fold higher in “IC50 (µg/ml) with constrains” value: 0.014 µg/mL for the first, 0.035 µg/mL for the second.

For B3, the “IC50 (µg/ml) with constrains” value was 0.002 µg/mL.

molecular target: HIV Env of isolate HIV-16055-2.3 (clade C) (HIV); test: cell-based or functional assay

Going from B1 to B2, the “IC50 (µg/ml) with constrains” value falls from 0.003 µg/mL to 0.002 µg/mL (1.5-fold).

B3 was tested, and the “IC50 (µg/ml) with constrains” value was 0.001 µg/mL.

molecular target: HIV Env of isolate T257-31 (clade AG) (HIV); test: cell-based or functional assay

B1 and B2 are within 1.5-fold of each other in “IC50 (µg/ml) with constrains” value: 0.02 µg/mL for the first, 0.016 µg/mL for the second.

In the case of B3, the “IC50 (µg/ml) with constrains” value is reported as 0.019 µg/mL.

B1 and B2 are within 1.5-fold of each other in “IC80 (µg/ml) with constrains” value: 0.078 µg/mL for the first, 0.064 µg/mL for the second.

For B3, the “IC80 (µg/ml) with constrains” value was 0.076 µg/mL.

molecular target: HIV Env of isolate 6535.3 (clade B) (HIV); test: cell-based or functional assay

Compared with B1, B2 is lower in “IC50 (µg/ml) with constrains” value: greater than 100 µg/mL for the first, 98.2 µg/mL for the second.

With B3 the “IC50 (µg/ml) with constrains” value was 57.8 µg/mL.

molecular target: HIV Env of isolate QH0692.42 (clade B) (HIV); test: cell-based or functional assay

B1 and B2 cannot be ordered by “IC50 (µg/ml) with constrains” value: greater than 100 µg/mL for the first, greater than 100 µg/mL for the second.

For B3, the “IC50 (µg/ml) with constrains” value was greater than 100 µg/mL.

molecular target: HIV Env of isolate X1193_C1 (clade G) (HIV); test: cell-based or functional assay

First: B1
Second: B2
The “IC50 (µg/ml) with constrains” value of the first is 2.4-fold higher: 0.095 µg/mL for the first, 0.039 µg/mL for the second.

In the case of B3, the “IC50 (µg/ml) with constrains” value is reported as 0.039 µg/mL.

molecular target: HIV Env of isolate ZM214M.PL15 (clade C) (HIV); test: cell-based or functional assay

B1 and B2 cannot be ordered by “IC50 (µg/ml) with constrains” value: greater than 100 µg/mL for the first, greater than 100 µg/mL for the second.

In the case of B3, the “IC50 (µg/ml) with constrains” value is reported as greater than 100 µg/mL.

molecular target: HIV Env of isolate 3301.v1.c24 (clade AC) (HIV); test: cell-based or functional assay

B1 and B2 are within 1.5-fold of each other in “IC50 (µg/ml) with constrains” value: 0.057 µg/mL for the first, 0.043 µg/mL for the second.

For B3, the “IC50 (µg/ml) with constrains” value was 0.021 µg/mL.

B1 and B2 are within 1.5-fold of each other in “IC80 (µg/ml) with constrains” value: 0.228 µg/mL for the first, 0.174 µg/mL for the second.

With B3 the “IC80 (µg/ml) with constrains” value was 0.084 µg/mL.

molecular target: HIV Env of isolate CAP45.2.00.G3 (clade C) (HIV); test: cell-based or functional assay

Compared with B1, B2 is 2-fold lower in “IC50 (µg/ml) with constrains” value: 0.002 µg/mL for the first, 0.001 µg/mL for the second.

For B3, the “IC50 (µg/ml) with constrains” value was 0.001 µg/mL.
